From the supplement of paper PMC11246515
± gives the standard deviation of the averaged measurements.

Test: total protein half-life in vivo (active degradation + dilution); higher = more stable protein
[1] = E. coli NCM3722 delta-clpP delta-lon delta-hslV, growth: N-lim chemostat, doubling time 6 h
[2] = E. coli NCM3722 delta-clpP, growth: N-lim chemostat, doubling time 6 h
[3] = E. coli NCM3722 delta-hslV, growth: N-lim chemostat, doubling time 6 h
[4] = E. coli NCM3722 delta-lon, growth: N-lim chemostat, doubling time 6 h
[5] = E. coli NCM3722 delta-smpB, growth: N-lim chemostat, doubling time 6 h
[6] = wild type E. coli NCM3722, growth: C-lim chemostat, doubling time 3 h
[7] = wild type E. coli NCM3722, growth: C-lim chemostat, doubling time 6 h
[8] = wild type E. coli NCM3722, growth: C-lim chemostat, doubling time 12 h
[9] = wild type E. coli NCM3722, growth: N-lim chemostat, doubling time 6 h
[10] = wild type E. coli NCM3722, growth: N-lim chemostat, doubling time 12 h
[11] = wild type E. coli NCM3722, growth: P-lim chemostat, doubling time 6 h
[12] = wild type E. coli NCM3722, growth: P-lim chemostat, doubling time 12 h

Question: Which “total protein half-life in vivo” value [1] does the source give for “MTVRVAINGFGRIGRNVVRALYESGRRAEITVVAINELADAAGMAHLLKYDTSHGRFAWEVRQERDQLFVGDDAIRVLHERSLQSLPWRELGVDVVLDCTGVYGSREHGEAHIAAGAKKVLFSHPGSNDLDATVVYGVNQDQLRAEHRIVSNASCTTNCIIPVIKLLDDAYGIESGTVTTIHSAMHDQQVIDAYHPDLRRTRAASQSIIPVDTKLAAGITRFFPQFNDRFEAIAVRVPTINVTAIDLSVTVKKPVKANEVNLLLQKAAQGAFHGIVDYTELPLVSVDFNHDPHSAIVDGTQTRVSGAHLIKTLVWCDNEWGFANRMLDTTLAMATVAFR [P0A9B6]” here?
Answer: The value was 4.55 ± 0.44 h.

Question: And the “total protein half-life in vivo” value [2]?
Answer: The value was 5.54 ± 2.7 h.

Question: And the “total protein half-life in vivo” value [3]?
Answer: Its value is 4.07 ± 1.2 h.

Question: And the “total protein half-life in vivo” value [4]?
Answer: Its value is 4.77 ± 1.6 h.

Question: What about the “total protein half-life in vivo” value [5] of the same sequence?
Answer: Its value is 3.65 ± 0.18 h.

Question: What about the “total protein half-life in vivo” value [6] of the same sequence?
Answer: The value was 2.85 ± 0.086 h.

Question: What about the “total protein half-life in vivo” value [7] of the same sequence?
Answer: The value was 5.08 ± 0.25 h.

Question: And the “total protein half-life in vivo” value [8]?
Answer: The value was 8.49 ± 0.63 h.

Question: What about the “total protein half-life in vivo” value [9] of the same sequence?
Answer: Its value is 3.49 ± 0.19 h.

Question: What about the “total protein half-life in vivo” value [10] of the same sequence?
Answer: Its value is 5.94 ± 0.99 h.

Question: And the “total protein half-life in vivo” value [11]?
Answer: The value was 5.48 ± 0.15 h.

Question: And the “total protein half-life in vivo” value [12]?
Answer: Its value is 10 ± 0.75 h.

Question: What does the source list for “MVDKSQETTHFGFQTVAKEQKADMVAHVFHSVASKYDVMNDLMSFGIHRLWKRFTIDCSGVRRGQTVLDLAGGTGDLTAKFSRLVGETGKVVLADINESMLKMGREKLRNIGVIGNVEYVQANAEALPFPDNTFDCITISFGLRNVTDKDKALRSMYRVLKPGGRLLVLEFSKPIIEPLSKAYDAYSFHVLPRIGSLVANDADSYRYLAESIRMHPDQDTLKAMMQDAGFESVDYYNLTAGVVALHRGYKF [P0A887]”?
Answer: total protein half-life in vivo [1]: 5.402 ± 0.0099 h; total protein half-life in vivo [2]: 4.951 ± 0.013 h; total protein half-life in vivo [3]: 4.18 ± 0.12 h; total protein half-life in vivo [4]: 4.9 ± 0.36 h; total protein half-life in vivo [5]: 4.19 ± 0.076 h; total protein half-life in vivo [6]: 2.405 ± 0.0086 h; total protein half-life in vivo [7]: 4.67 ± 0.086 h; total protein half-life in vivo [8]: 7.96 ± 0.38 h; total protein half-life in vivo [9]: 4.36 ± 0.36 h; total protein half-life in vivo [10]: 8.27 ± 1.5 h; total protein half-life in vivo [11]: 4.45 ± 0.31 h; total protein half-life in vivo [12]: 8.773 ± 0.069 h

Question: What does the source list for “MVDQAQDTLRPNNRLSDMQATMEQTQAFENRVLERLNAGKTVRSFLITAVELLTEAVNLLVLQVFRKDDYAVKYAVEPLLDGDGPLGDLSVRLKLIYGLGVINRQEYEDAELLMALREELNHDGNEYAFTDDEILGPFGELHCVAALPPPPQFEPADSSLYAMQIQRYQQAVRSTMVLSLTELISKISLKKAFQK [P0AF10]”?
Answer: total protein half-life in vivo [1]: 4.34 ± 0.54 h; total protein half-life in vivo [4]: 4.01 h; total protein half-life in vivo [5]: 3.44 h; total protein half-life in vivo [6]: 2.48 ± 0.33 h; total protein half-life in vivo [7]: 4.42 ± 0.24 h; total protein half-life in vivo [8]: 12.5 ± 1.4 h; total protein half-life in vivo [9]: 3.54 h; total protein half-life in vivo [10]: 5.95 ± 0.25 h; total protein half-life in vivo [11]: 4.55 h; total protein half-life in vivo [12]: 12.2 ± 2 h

Question: Which “total protein half-life in vivo” value [1] does the source give for “MVEDILAPGLRVVFCGINPGLSSAGTGFPFAHPANRFWKVIYQAGFTDRQLKPQEAQHLLDYRCGVTKLVDRPTVQANEVSKQELHAGGRKLIEKIEDYQPQALAILGKQAYEQGFSQRGAQWGKQTLTIGSTQIWVLPNPSGLSRVSLEKLVEAYRELDQALVVRGR [P0A9H1]” here?
Answer: Its value is 5.34 ± 0.42 h.

Question: What about the “total protein half-life in vivo” value [2] of the same sequence?
Answer: The value was 5.22 ± 0.42 h.

Question: And the “total protein half-life in vivo” value [3]?
Answer: Its value is 6.31 ± 1.5 h.

Question: What about the “total protein half-life in vivo” value [4] of the same sequence?
Answer: The value was 5.677 ± 0.045 h.

Question: And the “total protein half-life in vivo” value [5]?
Answer: The value was 4.88 ± 0.35 h.

Question: And the “total protein half-life in vivo” value [6]?
Answer: The value was 3.1514 ± 0.00069 h.

Question: What about the “total protein half-life in vivo” value [7] of the same sequence?
Answer: The value was 5.79 ± 0.27 h.

Question: What about the “total protein half-life in vivo” value [8] of the same sequence?
Answer: Its value is 12.1 ± 1.1 h.

Question: What about the “total protein half-life in vivo” value [9] of the same sequence?
Answer: Its value is 5.18 ± 0.47 h.

Question: And the “total protein half-life in vivo” value [10]?
Answer: The value was 8.94 ± 0.12 h.

Question: What about the “total protein half-life in vivo” value [11] of the same sequence?
Answer: The value was 5.74 ± 0.3 h.

Question: What about the “total protein half-life in vivo” value [12] of the same sequence?
Answer: The value was 11.7 ± 0.27 h.

Question: What does the source list for “MVELKEPLATLWRGKDAFAEVKKLNGEVFRELETRRTLRFELSGKSYFLKWHKGTTLKEIIKNLLSLRMPVLGADREWHAIHRLSDVGVDTMKGIGFGEKGLNPLTRASFIITEDLTPTISLEDYCADWAVNPPDIRVKRMLIARVATMVRKMHTAGINHRDCYICHFLLHLPFTGREDELKISVIDLHRAQIRAKVPRRWRDKDLIGLYFSSMNIGLTQRDIWRFMKVYFGMPLRKILSLEQNLLNMASVKAERIKERTQRKGL”?
Answer: total protein half-life in vivo [1]: 6.12 ± 0.57 h; total protein half-life in vivo [2]: 6.03 ± 0.16 h; total protein half-life in vivo [3]: 6.41 ± 0.56 h; total protein half-life in vivo [4]: 5.58 ± 0.54 h; total protein half-life in vivo [5]: 5.92 ± 0.2 h; total protein half-life in vivo [6]: 3.02 ± 0.17 h; total protein half-life in vivo [7]: 6.68 ± 0.36 h; total protein half-life in vivo [8]: 11.5 ± 0.34 h; total protein half-life in vivo [9]: 5.76 ± 0.48 h; total protein half-life in vivo [10]: 11.4 ± 1.2 h; total protein half-life in vivo [11]: 5.94 ± 0.41 h; total protein half-life in vivo [12]: 12 ± 0.44 h

Question: For “MVFRIASSPYTHNQRQTSRIMLLVLLAAVPGIAAQLWFFGWGTLVQILLASVSALLAEALVLKLRKQSVAATLKDNSALLTGLLLAVSIPPLAPWWMVVLGTVFAVIIAKQLYGGLGQNPFNPAMIGYVVLLISFPVQMTSWLPPHEIAVNIPGFIDAIQVIFSGHTASGGDMNTLRLGIDGISQATPLDTFKTSVRAGHSVEQIMQYPIYSGILAGAGWQWVNLAWLAGGVWLLWQKAIRWHIPLSFLVTLALCAMLGWLFSPETLAAPQIHLLSGATMLGAFFILTDPVTASTTNRGRLIFGALAGLLVWLIRSFGGYPDGVAFAVLLANITVPLIDYYTRPRVYGHRKG”, which “total protein half-life in vivo” value [1] is on record?
Answer: Its value is 7.06 h.

Question: And the “total protein half-life in vivo” value [6]?
Answer: The value was greater than 4 h.

Question: And the “total protein half-life in vivo” value [8]?
Answer: The value was 13 ± 0.93 h.

Question: What about the “total protein half-life in vivo” value [9] of the same sequence?
Answer: The value was 6.53 h.

Question: And the “total protein half-life in vivo” value [10]?
Answer: Its value is 9.64 h.

Question: What about the “total protein half-life in vivo” value [12] of the same sequence?
Answer: The value was 13 ± 1.1 h.

Question: What does the source list for “MVINCAFIGFGKSTTRYHLPYVLNRKDSWHVAHIFRRHAKPEEQAPIYSHIHFTSDLDEVLNDPDVKLVVVCTHADSHFEYAKRALEAGKNVLVEKPFTPTLAQAKELFALAKSKGLTVTPYQNRRFDSCFLTAKKAIESGKLGEIVEVESHFDYYRPVAETKPGLPQDGAFYGLGVHTMDQIISLFGRPDHVAYDIRSLRNKANPDDTFEAQLFYGDLKAIVKTSHLVKIDYPKFIVHGKKGSFIKYGIDQQETSLKANIMPGEPGFAADDSVGVLEYVNDEGVTVREEMKPEMGDYGRVYDALYQTITHGAPNYVKESEVLTNLEILERGFEQASPSTVTLAK”?
Answer: total protein half-life in vivo [1]: 5.85 ± 0.38 h; total protein half-life in vivo [2]: 4.79 ± 0.2 h; total protein half-life in vivo [3]: 5.38 ± 0.92 h; total protein half-life in vivo [4]: 4.78 ± 0.095 h; total protein half-life in vivo [5]: 4.91 ± 0.26 h; total protein half-life in vivo [6]: 3.04 ± 0.12 h; total protein half-life in vivo [7]: 5.58 ± 0.54 h; total protein half-life in vivo [8]: 11.6 ± 0.32 h; total protein half-life in vivo [9]: 4.75 ± 0.06 h; total protein half-life in vivo [10]: 8.63 ± 0.17 h; total protein half-life in vivo [11]: 5.842 ± 0.057 h; total protein half-life in vivo [12]: 12.3 ± 1.1 h

Question: For “MVISIRRSRHEEGEELVAIWCRSVDATHDFLSAEYRTELEDLVRSFLPEAPLWVAVNERDQPVGFMLLSGQHMDALFIDPDVRGCGVGRVLVEHALSMAPELTTNVNEQNEQAVGFYKKVGFKVTGRSEVDDLGKPYPLLNLAYVGA”, which “total protein half-life in vivo” value [1] is on record?
Answer: Its value is 3.78 h.
